# From the nanobody polyreactivity screen of Harvey et al. (2022)
# Assay: yeast display, Sf9 membrane polyspecificity reagent, FACS + sequencing; frameworks hold sequencing errors
# Summary of the method: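 Sorting gates, low and high (top ~1%), were placed on anti-HA fluorescence to track expression and on streptavidin fluorescence to track reagent binding. A clone's polyreactivity label is taken from the gate it came out of. The reagent was 10% biotinylated, detergent-solubilized Sf9 membrane, applied for 1 hour at 4 °C to galactose-induced yeast display cells.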
row,Sequence,polyreactivity (PSR sort gate)
1,QVQLVESGGGLVQAGCSLRLSCAASGITFELYAMGSYRQAPGKERELVAAISSNGGITFYADSVKGRFTISRDYAKNTVYLQMKSLKPEDTEVYYCAARYVRYPRYDYWGQGTQVTVSS,high polyreactivity
2,QVQLVESGGGLVQAGCSLRLSCAASGITFTYYAMGWYRQAPGKERELVAAINTGGNTNYADSVKGRFTISRDYAKNSVYLQMNSLKPEDTAVYYCAAYWYYYWWYDYWGQGTQVSVSS,high polyreactivity
3,QVQLVESGGGLVQAGCSLRLSCAASGITFVYYAMGRYRQAAGKERELVAAITTGGSTNYADSVKGRFTISRDNAKYTVYLQMNSLKPEDTAVYYCNKRPVILYDYWGQGTQVTVSS,low polyreactivity
4,QVQLVESGGGLVQAGCSLRLSCAASGNTYYSYTMGWYRQAPGKERELVAAITGSGSTYYADSVKGRFTISRDNAKNTVYLQMNSLKPEDTAVYYCASRYVERHTDYYYWGQGTQVTVSS,low polyreactivity
5,QVQLVESGGGLVQAGCSLRLSCAASGRIDRRYAMGWYRQAPGKERDLFAAISSRGGRTYYADSVKGRFTISRDNAMNTVYLQMNSLKQEDTAVYYCAARPAGYGHYKYYYWGKGTQVTVSS,high polyreactivity
6,QVQLVESGGGLVQAGCSLRLSCAASGRIFRGNAMGWYRQAPGKERELVARITGNDGDTYYADSVKGRFTISRDNAKNTVYLQMNSLNPEDTAVYYCATDTSSYRRRYYYWGQGTQVTVSS,low polyreactivity
7,QVQLVESGGGLVQAGCSLRLSCAASGRIFRKNTMGWYIQAPGKEWELVAAISFRGASTYYADSVKGRFTISRDNAKNTVYLQMNSLKPEDTAVYYCATVRAHASRLGYDYWGQGTQVTVSS,high polyreactivity
8,QVQLVESGGGLVQAGCSLRLSCAASGRIFTHNAMGWYRPAPGKERELVAAITSGGRTTYADSVKGRFTFSRDNAKNTVYLQMHSLNPEDTAVYYCNADTGLGSLDFDKRDYWGQGTQVTVSS,low polyreactivity
9,QVQLVESGGGLVQAGCSLRLSCAASGRIFTSNAMGWYRQAPGTERELVAVISRRGGSTYYADSVKGRFTISRDNAMNTVYLQMNSLKPEDTAVYYCARRPYSYTRYEYWGQGTQVTVSS,low polyreactivity
10,QVQLVESGGGLVQAGCSLRLSCAASGRIIDGYAMGWYRQAPGKEREFVAAITWIGGRTYYADSVKGRFTISRDNAKITVYLHMNSLKPEDTAVYYCAVVQSRYRGRFDYWGQGTQVTVTS,high polyreactivity
11,QVQLVESGGGLVQAGCSLRLSCAASGRIITRYPMGWYRQAPGKERELVAAISYGGGGTYYADSVKGRFTISRDNAKNTVYLQMNSLKPDDTAVYYCATDDPLSQINEQGMDYWGQGTQVTVSS,low polyreactivity
12,QVQLVESGGGLVQAGCSLRLSCAASGRNFRYYAMGLYRQAPGKERELVAAIDTGDTYYADSVKGRFTISRDNAKYTGYLQMNSLKPEDTAVYYSAAEGSTSLDDYWGQGTQVTVSS,high polyreactivity
13,QVQLVESGGGLVQAGCSLRLSCAASGRTFGRNAMGWNRQAPGKERELVAAITSGGSTSYADSVKGRFTISRDNAKNTVYLQMNSLKPEDTAVYYCAADVRPYYTRRVWIQFDYWGQGTQVTVSS,high polyreactivity
14,QVQLVESGGGLVQAGCSLRLSCAASGRTFTLNAMGWYRQAPGKERELVADITYSDGDTYYADSVKGRFTISRDNAKNTVYLQMNSLIPEDTAGYYCAAGGYTDPGYEYWGQGTQVTVSS,low polyreactivity
15,QVQLVESGGGLVQAGCSLRLSCAASGRTFYHYGMGWYRQAPGKERELVAAINFSGGSTNYADSVKGRFTISRDNAKNTVYLQMNSLKTEDTAVYNCNKEGRPDRDYWGQGTQVTVSS,low polyreactivity
16,QVQLVESGGGLVQAGCSLRLSCAASGSIFAYYTMGWYRQAAGKERELVATISSGDITNYADSVKGRFTISRDNAKNSVYLQMNSLKPEDTAVYFCAAAELTSYYRTFIHKDYDFWGQGTQVSVSS,low polyreactivity
17,QVQLVESGGGLVQAGCSLRLSCAASGSIFDVNAMGWYRQAPGKERELVAAISQRGNRTYYADSVKGRFTISRDNAKNTVYLQMNSLKPEDTAVYYCNRGGWRQYDSWGQGTQVTVSS,high polyreactivity
18,QVQLVESGGGLVQAGCSLRLSCAASGSNFYRNSMRWYRQAPGKERELVAGITTRGGSTYYADSVKGRFTISRDNAKNTVYLQMNSLKPEDTEVYYCNARSYTGSYFKYYYWGQGTQVTVSS,high polyreactivity
19,QVQLVESGGGLVQAGCSLRLSCAASGSTFRKYAMGWYSQAPGKQREFVAAITSSGGSTYYSDSVKGRFTISRDKAKNTVYLLMNSLIPEDTAVYYCASRGVYVSTAYNYWGQGTQVTESS,high polyreactivity
20,QVQLVESGGGLVQAGCSLRLSCAASGSTFRRYAMGWYRQAPGKERELVAAISGGGTSTYYADSVEGRFTISRDNAKNTVDLQMNSLKPEDTAVYYCNAKTYYARYDYWGQGTQVSVSS,high polyreactivity
21,QVQLVESGGGLVQAGCSLRLSCAASGTFGLYAMGWYRQAPGKERELVAAIRARGGSTYYADSVKGRFTISRDNAKNTVYLQMNSLKPEDTAVYYCAAEFWDVSLARKQWYDYWGQGTQVSVSS,high polyreactivity
22,QVQLVESGGGLVQAGCSLRLSCAASRYIFYFYAMGWYRQAPGKERELVAAINSGGTTNYADSVKGRFTISRDNAKNTVYLQMNSLKAEDTAVYYCAARLLIRYYYWGQGTQVTVSS,high polyreactivity

row,Sequence,polyreactivity (PSR sort gate)
1,QVQLVESGGGLVQAGCSLRLSCAATGCSFKYNTMGWYRQAPGKERELVAAITSGGGSTYYADSVKGRFTISRDNAKNTVYLPMNRLKPEDTAVYYCAAYRRNTYWGQGTQVTVSA,high polyreactivity
2,QVQLVESGGGLVQAGCSRRFSCAASGFTFYKNAMGWYRQAPGKERELVAAITSSGGTTYYADSVKGRFTISRDNAKNTVYLQMNSLNPEDTAVYYCAARASRPRFGYWGQGTQVTVSS,high polyreactivity
3,QVQLVESGGGLVQAGDSLRLSCAASGSIFVYYAMGWYRQAPGKERELVASISKTGGRTYYADSVKGRFTISRDNAKNTVFLQMNSLKPEDTAVYYCAARYTIRYKRYDYWGQGSQVTVSS,high polyreactivity
4,QVQLVESGGGLVQAGFSLRLSCAASGFTFKYYAMGWYRQAPGKERELVAAISSGGSTYYADSVKGRFTISRDNAKNTVYLQMNSLKPEDTAVYYCNRRFAPFWGRYGYWGQGTKVTVSS,high polyreactivity
5,QVQLVESGGGLVQAGGCLRLSCAASGFTLRYNAMGWSRQAPGKERELVAAITTGGRTNYADSVKGRFTISRDNAKKTVYLQMNSLKPEDTAVYNCNKVFRSFDYWGQGTQVTVSS,high polyreactivity
6,QVQLVESGGGLVQAGGCLRLSCAASGSIFGYNAMGWYRHAPGKERELVAAISWRGGSTYYADSVKGRFTISRDNAKNSVYLQMNSLKPEDTAVYYCNTLYPYRHDYAGDYWGQGTQVTVSA,high polyreactivity
7,QVQLVESGGGLVQAGGCLRLSCAASGSTFSPNAMGWYRQAPGKERELVAAISVSCGTTYYADSVKGRFTISRDNAKNTVYLQMNSLKPEDTAVYYCAAKPYPTDDYWGQGTQVTVSS,low polyreactivity
8,QVQLVESGGGLVQAGGGLRLSCAASGNTFRYYAMGWYIQAPGKERELVATITSGGRTYYADSVKGRFTISRDNAKNTVYLQMNSLKPEDTAVYYCNADYFQDRLDYWGQGTQVTVSS,low polyreactivity
9,QVQLVESGGGLVQAGGGLRLSCAASGSIFLINAMGWYRQAPGKERELVAAITSGSSTNYADSVKGRFTISRDNAKNTVYLQMNSLKPEDTAVYYCAASTPYSYRYDYWGQGTQVTVSS,low polyreactivity
10,QVQLVESGGGLVQAGGGLRLSSAASGTFKRNAVGWYRQAPGKERELVATITRTGSTTYADSVKGRFTISRDNAMNTVYLQMNSLKPEDTAVYYCAAGYPPEDPEDYWGQGTQVTVSS,low polyreactivity
11,QVQLVESGGGLVQAGGILPLSCAASGSIFVSNAMGWSRQAPGKERELVAAISSGSTYYADSVKGRFTISRDNAKNTVYLQMNSLKPEDTAVFYCIARSLLYEFDYWGQGTQVTVSS,low polyreactivity
12,QVQLVESGGGLVQAGGILRFSCAASGRISVVNAMAWFRQAPGKARELVAAIRRASTNYADSVKGRFTISRDNAKNTVYLQMNSLKPEDTAVYYCAARVYGINIFEYWGQGTQVTLSS,high polyreactivity
13,QVQLVESGGGLVQAGGILRISCAASGRTFIMNAMGWYRQAPGKERELVAAINWSGGTSTYYADSVKGRFTISRDNAKNTVYFQMNSLKPEDTAVYYCAADYYSYVYYDYWGQGTLVTVSS,low polyreactivity
14,QVQLVESGGGLVQAGGILRLSCAASGFIFAPNAMGWYRQPPGKERELVAAISASGGSTYYADSVKGRFTISRDNAKNTVYLQMNSLKPEDTAVYYCAADRTFSSFPEYNYWGQGTQVTVSS,low polyreactivity
15,QVQLVESGGGLVQAGGILRLSCAASGFIFDSYAMGWYRQAPGKERELVAAINWNGGRTYYADSVKGRFTISRDNAKNTVYLQMNRLKPEDTAVYYCAKDTDNWDVGGYVYDYDYWGQGTQVTVSS,high polyreactivity
16,QVQLVESGGGLVQAGGILRLSCAASGFIFRKYAMGWYRQAPGKERELVAAINKSGGSTYYADSVKGRFTISRDNAKNTVYLQMNSLKPEDSAVYYCATVRTYRPPVRRGYWGQGTLVTVSS,high polyreactivity
17,QVQLVESGGGLVQAGGILRLSCAASGFTFHRYAMGWYRQAPGKERELVARITRGGSTKYADSVKGRFTISRDNAKNTVYLQMNSLKPEDTAVYYCAADYGGFLGYDYWGQGNQVTVSS,high polyreactivity
18,QVQLVESGGGLVQAGGILRLSCAASGFTFPWYTMGWYRQAPGKERELVAAISKSGGSTYYADSVKGRFTISRDNAKNTVFLQMNSLKPEDTAVYYCAARGNLYVGGDERFWGQGTQVTVSS,high polyreactivity
19,QVQLVESGGGLVQAGGILRLSCAASGFTLLPYAMGWYTQAPGKERELVAAISRRGVSTYYADSVKGRFTLSRDNAKNTVYLPMNSLNPQDTAVNYCAADSYSRATVQYEYWGQCTQVTVSS,high polyreactivity
20,QVQLVESGGGLVQAGGILRLSCAASGGIFNRYSKGWYRQAPGKERELVAGITRSGGSTSYADSVKGRFTISRDNAKNTVYLQMNSLKPEDTAVYFCKKVAYYASSSSYRFGAYGYWGQGSQVTVSS,high polyreactivity
21,QVQLVESGGGLVQAGGILRLSCAASGIIYQRNAMGCYRQAPGKERQLVASITAGGDTTYYADSVKGRFTISRDNAKNTVYLQMNSLKPEDTAVYYCAVDSWLDDDDSYPDSILVDYWGQGTQVTVSS,low polyreactivity
